Laboratory results as given in US20210130452A1 (Merck KGaA, published 2021).
Like-named read-outs stand apart in the source and are kept apart here.

Assays:
mouse IL-17A = biological target: T1, mouse IL-17A (mouse, UniProt Q62386 26-158); experiment: ELISA, coated IL-17A
T1 sequence (looked up): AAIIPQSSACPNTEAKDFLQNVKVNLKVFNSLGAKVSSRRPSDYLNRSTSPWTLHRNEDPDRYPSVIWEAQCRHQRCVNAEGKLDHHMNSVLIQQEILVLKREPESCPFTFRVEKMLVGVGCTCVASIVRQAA
Procedure: (§1) Binding of a selected panel of anti-IL-17 Nanobodies to IL-17 of other species was assessed using a binding ELISA. […] HRP (horseradish peroxidase) conjugated anti-myc (Serotec, MCA 2200P) was used for detection using esTMB as substrate.

guinea pig IL-17A = guinea pig IL-17A (guinea pig); experiment: ELISA, coated IL-17A
Procedure: as §1

marmoset IL-17A = biological target: T2, marmoset IL-17A (marmoset, IL-17A is a disulfide-linked homodimer. One chain is given.); experiment: ELISA, coated IL-17A
T2 chain: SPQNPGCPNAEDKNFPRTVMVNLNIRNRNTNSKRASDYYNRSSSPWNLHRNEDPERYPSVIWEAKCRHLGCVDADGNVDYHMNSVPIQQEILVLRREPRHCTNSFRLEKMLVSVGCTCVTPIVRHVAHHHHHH
Procedure: as §1

human IL-17A [1] = biological target: T3, human IL-17A (human, UniProt Q16552 24-155); experiment: ELISA, coated IL-17A
T3 construct: secreted form (GenBank U32659) expressed in Hek293 with C-terminal 6-His; also called hIL-17A; IL-17A-6HIS
T3 sequence (Q16552 other isoform, or with tags, fused parts or gaps): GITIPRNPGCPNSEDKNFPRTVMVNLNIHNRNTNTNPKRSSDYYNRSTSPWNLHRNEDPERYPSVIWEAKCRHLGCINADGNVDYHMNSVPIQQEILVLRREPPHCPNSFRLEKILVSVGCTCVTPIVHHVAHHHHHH
Procedure: as §1

rat IL-17A = biological target: T4, rat IL-17A (rat, UniProt Q61453 18-150, limits assumed); experiment: ELISA, coated IL-17A
T4 sequence (looked up): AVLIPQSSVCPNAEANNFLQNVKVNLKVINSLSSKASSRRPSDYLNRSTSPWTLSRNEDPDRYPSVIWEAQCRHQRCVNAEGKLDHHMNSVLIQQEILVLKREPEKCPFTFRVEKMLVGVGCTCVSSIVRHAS
Procedure: as §1

rat IL-17F = biological target: T5, rat IL-17F (rat, UniProt Q5BJ95 29-161); experiment: ELISA, coated IL-17F;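 note: binding ELISA on coated antigen from various species, with bound Nanobodies revealed by an HRP-linked anti-myc antibody and esTMB substrate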
T5 sequence (looked up): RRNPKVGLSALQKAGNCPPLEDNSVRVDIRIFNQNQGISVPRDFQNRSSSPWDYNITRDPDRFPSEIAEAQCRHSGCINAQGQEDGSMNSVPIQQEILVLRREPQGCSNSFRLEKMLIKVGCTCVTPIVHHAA
Procedure: as §1

human IL-17A [2] = biological target: T3, human IL-17A; experiment: SPR, IL-17A-Nanobody complex over captured IL-17RA
Source text: The receptor (IL-17RA or IL-17RC) was captured via its human Fc-tail by an anti-human IgG-Fc antibody coated on the chip.

mouse IL-17F = biological target: T6, mouse IL-17F (mouse, UniProt Q7TNI7 29-161); experiment: ELISA, coated IL-17F;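 note: binding ELISA on coated antigen from various species, with bound Nanobodies revealed by an HRP-linked anti-myc antibody and esTMB substrate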
T6 sequence (looked up): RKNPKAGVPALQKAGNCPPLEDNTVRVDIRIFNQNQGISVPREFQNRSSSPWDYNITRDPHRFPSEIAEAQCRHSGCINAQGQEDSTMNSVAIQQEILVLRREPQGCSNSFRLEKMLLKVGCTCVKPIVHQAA
Procedure: as §1

human IL-17F [3] = biological target: T7, human IL-17F (human, UniProt Q96PD4 31-163); experiment: AlphaScreen hIL-17F-IL-17RC; vs IL17MS13E02
T7 construct: made in Hek293 cells (GenBank AF384857); also called hIL-17F; hIL17F
T7 sequence: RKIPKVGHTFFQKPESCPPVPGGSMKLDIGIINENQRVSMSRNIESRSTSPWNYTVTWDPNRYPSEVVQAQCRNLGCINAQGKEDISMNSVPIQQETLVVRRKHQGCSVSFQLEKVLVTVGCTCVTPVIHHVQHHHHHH

human IL-17A [4] = biological target: T8, human IL-17A (human, UniProt Q16552 24-155); experiment: SPR (Biacore) off-rate
T8 construct: secreted form made in Hek293 cells (GenBank U32659); also called hIL-17A; hIL17A
T8 sequence (Q16552 other isoform, or with tags, fused parts or gaps): as the sequence (Q16552 other isoform, or with tags, fused parts or gaps) above

human IL-17F [5] = biological target: T7, human IL-17F; experiment: SPR (Biacore) off-rate
[6] = biological target: T9, human IL-17A/F heterodimer (human, UniProt Q16552 24-155; Q96PD4 31-163, limits assumed); experiment: SPR (Biacore) off-rate
T9 construct: bought, made in E. coli (R&D Systems 5194-IL/CF); also called hIL-17A/F; hIL17A/F
T9 sequence (Q16552 24-155 limits assumed, chain 1 of 2, one chain of several): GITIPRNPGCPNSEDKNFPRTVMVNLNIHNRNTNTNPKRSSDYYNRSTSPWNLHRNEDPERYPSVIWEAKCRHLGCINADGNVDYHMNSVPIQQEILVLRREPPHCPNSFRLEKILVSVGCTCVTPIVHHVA

human IL-17A [7] = biological target: T8, human IL-17A; experiment: SPR (Biacore) off-rate; remark: listed apart in the source
human IL-17F [8] = biological target: T7, human IL-17F; experiment: SPR (Biacore) off-rate; remark: listed apart in the source
[9] = biological target: T9, human IL-17A/F heterodimer; experiment: SPR (Biacore) off-rate; remark: listed apart in the source

B1: 02A08 (VHH)
VHH: EVQLVESGGGVVQPGGSLRLSCADSERSFSFNAMGWFRQAPGKEREFVAAISATGDDTYYADSVKGRFAISRDTARNTVYLQMNSLKPEDTAVYYCGARVNFDGTVSYTNDYAYWGQGTQVTVSS
notes: Class 2
OD (mouse IL-17A): -0.001 OD
OD (guinea pig IL-17A): 0.002 OD
OD (marmoset IL-17A): 1.95 OD
OD (human IL-17A [1]): 1.95 OD
OD (rat IL-17A): 0.002 OD
OD (rat IL-17F): 0.0035 OD
% Biacore binding (IL-17A-NB)-IL-17RA (human IL-17A [2]): 0.46%

B2: 13B05 (VHH)
VHH: EVQLVESGGRLVQAGGSLRLSCAASGRTFTSYPMGWFRQAPGKEREFVAAISMSGDDTAYTDFVRGRFTISRDDARNTVYLHMTSLKPEDTAVYYCAARTSYDGTYDYIDDYSYWGQGTQVTVSS
notes: Class 4
OD (mouse IL-17A): -0.006 OD
OD (guinea pig IL-17A): 0.001 OD
OD (marmoset IL-17A): 1.91 OD
OD (human IL-17A [1]): 1.82 OD
OD (rat IL-17A): 0.003 OD
OD (mouse IL-17F): 0.0205 OD
OD (rat IL-17F): 0.0095 OD
% Biacore binding (IL-17A-NB)-IL-17RA (human IL-17A [2]): -0.89%

B3: IL17MS3038 (VHH)
VHH: EVQLVESGGGLVQAGGSLRLSCAASGRTYDAVGWLRQAPGKEREFVAAISGSGDDTYYADSVKGRFTISKDNAGITMYLQMNSLKPEDTAVYYCATRRGLYYVWDSNDYENWGQGTQVTVSS
notes: variant of IL17MS13E02; Kabat numbering
IC50 fold difference vs WT (human IL-17F [3]): 3.2 fold
koff (human IL-17A [4]): 0.000225 s⁻¹
koff (human IL-17F [5]): 0.0101 s⁻¹
koff [6]: 6.82e-05 s⁻¹

B4: IL17MS3039 (VHH)
VHH: EVQLVESGGGLVQAGGSLRLSCAASGRTYDAMGWLRQAPGKEREFVAAISGSGDDTYYADSVKGRFTISKDNAGITVYLQMNSLKPEDTAVYYCATRRGLYYVWDSNDYENWGQGTQVTVSS
notes: as for B3
IC50 fold difference vs WT (human IL-17F [3]): 1.25 fold
koff (human IL-17A [4]): 0.00021 s⁻¹
koff (human IL-17F [5]): 0.00515 s⁻¹
koff [6]: 4.03e-05 s⁻¹

B5: 03C07 (VHH)
VHH: EVQLVESGGGLVQAGGSLRLSCAASGFTFDDYAIGWFRQAPGKEREAVSCFSSSDGSIYYADSVKGRFTISSDNAKNTVYLQMNSLKPEDTAVYYCAGGGGSYYYTQLNYCYDMDYWGKGTQVTVSS
notes: Class 2
OD (mouse IL-17A): -0.004 OD
OD (guinea pig IL-17A): 0.004 OD
OD (marmoset IL-17A): 1.7 OD
OD (human IL-17A [1]): 1.7 OD
OD (rat IL-17A): 0.003 OD
OD (mouse IL-17F): 0.0005 OD
OD (rat IL-17F): 0.0015 OD
% Biacore binding (IL-17A-NB)-IL-17RA (human IL-17A [2]): -0.08%

B6: 11C08 (VHH)
VHH: EVQLVESGGGLVQAGGSLRLSCAASGVIFRLNAMGWYRAAPGKQRELVAIIVNGGSTNYADSVKGRFTISRDSAKNAVYLQMNSLKPEDTAVYYCYYNIPGDVYWGQGTQVTVSS
notes: Class 4
OD (mouse IL-17A): -0.005 OD
OD (guinea pig IL-17A): 0.002 OD
OD (marmoset IL-17A): 0.671 OD
OD (human IL-17A [1]): 1.71 OD
OD (rat IL-17A): 0.002 OD
OD (mouse IL-17F): -0.0025 OD
OD (rat IL-17F): 0.0005 OD
% Biacore binding (IL-17A-NB)-IL-17RA (human IL-17A [2]): 3.25%

B7: IL17MS3043 (VHH)
VHH: EVQLVESGGGSVQPGGSLRLSCAASGRANSINWFGWFRQTPGKEREFVAGIRWSDAYTEYANSVKGRFTISRDNSKNTVYLQMDSLRPEDTAVYYCVLDLSTVRYWGQGTLVTVSS
notes: variant of IL17MS13B03; Kabat numbering
koff (human IL-17A [7]): 0.000276 s⁻¹
koff (human IL-17F [8]): 0.00811 s⁻¹
koff [9]: 0.000585 s⁻¹

B8: IL17MS3046 (VHH)
VHH: EVQLVESGGGSVQPGDSLRLSCAASGRANSINWFGWFRQTPGKEREFVAGIRWSDAYTEYAASVKGRFTISRDNSKNTVDLQMDSLRPEDTAVYYCVLDLSTVRYWGQGTLVTVSS
notes: as for B7
koff (human IL-17A [7]): 0.000281 s⁻¹
koff (human IL-17F [8]): 0.00848 s⁻¹
koff [9]: 0.000515 s⁻¹

B9: IL17MS3050 (VHH)
VHH: EVQLVESGGGSVQPGGSLRLSCAASGRANSINWFGWFRQTPGKEREFVAGIRWSDAYTEYANSVKGRFTISRDNSKNTVDLQMDSLRPEDTAVYYCVLDLSTVRYWGQGTLVTVSS
notes: as for B7
koff (human IL-17A [7]): 0.000267 s⁻¹
koff (human IL-17F [8]): 0.00855 s⁻¹
koff [9]: 0.000575 s⁻¹

B10: IL17MS3045 (VHH)
VHH: EVQLVESGGGSVQPGDSLRLSCAASGRANSINWFGWFRQAPGKEREFVAGIRWSDAYTEYANSVKGRFTISRDNSKNTVDLQMDSLRPEDTAVYYCVLDLSTVRYWGQGTLVTVSS
notes: as for B7
koff (human IL-17A [7]): 0.00027 s⁻¹
koff (human IL-17F [8]): 0.00794 s⁻¹
koff [9]: 0.000616 s⁻¹

B11: IL17MS3048 (VHH)
VHH: EVQLVESGGGSVQPGDSLRLSCAASGRANSINWFGWFRQTPGKEREFVAGIRWSDAYTEYANSVKGRFTISRDNSKNTVDLQMNSLRPEDTAVYYCVLDLSTVRYWGQGTLVTVSS
notes: as for B7
koff (human IL-17A [7]): 0.000295 s⁻¹
koff (human IL-17F [8]): 0.00874 s⁻¹
koff [9]: 0.000665 s⁻¹

B12: IL17MS3044 (VHH)
VHH: EVQLVESGGGLVQPGDSLRLSCAASGRANSINWFGWFRQTPGKEREFVAGIRWSDAYTEYANSVKGRFTISRDNSKNTVDLQMDSLRPEDTAVYYCVLDLSTVRYWGQGTLVTVSS
notes: as for B7
koff (human IL-17A [7]): 0.000212 s⁻¹
koff (human IL-17F [8]): 0.00776 s⁻¹
koff [9]: 0.000253 s⁻¹

B13: IL17MS3049 (VHH)
VHH: EVQLVESGGGSVQPGDSLRLSCAASGRANSINWFGWFRQAPGKEREFVAGIRWSDAYTEYANSVKGRFTISRDNSKNTVYLQMDSLRPEDTAVYYCVLDLSTVRYWGQGTLVTVSS
notes: as for B7
koff (human IL-17A [7]): 0.00015 s⁻¹
koff (human IL-17F [8]): 0.00757 s⁻¹
koff [9]: 0.000248 s⁻¹

B14: 13E05 (VHH)
VHH: EVQLVESGGGKVQAGDSLTLSCVASGGTFSNYAAWFRQAPGKDRRELVVSIFRTGSITYTADSVKGRFTASRVNTKNTVYLQMNSLKPEDTAVYYCASAYNPGVGYDYWGQGTQVTVSS
notes: Class 4
OD (mouse IL-17A): 0.004 OD
OD (guinea pig IL-17A): 0.006 OD
OD (marmoset IL-17A): 1.89 OD
OD (human IL-17A [1]): 1.96 OD
OD (rat IL-17A): 0.003 OD
OD (mouse IL-17F): 0.0005 OD
OD (rat IL-17F): 0.0025 OD
% Biacore binding (IL-17A-NB)-IL-17RA (human IL-17A [2]): 0.54%
